# System: Cc1cc(=O)oc2c(F)c(OP(=O)(O)O)c(F)cc12
# Test: Michaelis-Menten kinetics (KM) with purified enzyme, fluorescence
# Type: biochemical, Homo sapiens
substance,measurement,value
PTPN6 (Homo sapiens),Km,187.5 µM
same,Vmax,10.8 µM/min
same,kcat,30 s⁻¹
same,kcat/Km,162000 M⁻¹ s⁻¹
